The results in this text go back to paper PMC11348219.

Several values for one entry are separate records, joined by “and”; a condition that tells them apart may be missing. Equal values may be shown once.

As usually defined, the stoichiometry N is the number of molecules, sites or subunits per partner or assembly.

The target in this test is mutant-1a anti-A scFv. Nature of the test: non-reducing SDS-PAGE; elution fraction EfA1 of nickel affinity chromatography on a Coomassie-stained 15% SDS-PAGE gel, non-reducing.

B1: mutant-1a anti-A scFv (scFv, V domains shown)
VH: QVQLQQPGAELVKPGTSVKLSCKASGYNFTSYWINWVKLRPGQCLEWIGDIYPGSGITNYNEKFKSKATLTVDTSSSTAYMQLSSLASEDSALYYCAGQYGNLWFAYWGQGTLVTVSG
VL: DIQMTQTTSSLSASLGDRVTISCRASQDINNYLNWYQQKPDGTVKLLIHYTSRLHSGVPSRFSGSGSGTDYSLTISNLEQEDIATYFCQQGNTLPWTFGCGTKLEIK
Take B1: the stoichiometry N is 2 and 3.
